Experiments:
[1] = target: MoMuLV reverse transcriptase (Moloney murine leukemia virus, UniProt P03355 P03355:660-1330); experiment: EMSA; did not bind MoMuLV RT
[2] = target: T1, HIV-1 reverse transcriptase (p66/p51) (Human immunodeficiency virus 1, UniProt P04585;P04585 P04585:588-1147,P04585:588-1027); experiment: EMSA; affinity similar to tRNALys3; 100-fold excess competes effectively; 6 mM MgCl2, 60 mM NaCl, pH 8.3, 37 C; details: Genetics Institute (Cambridge, MA) for polymerase assays; tRNA cloverleaf, acceptor stem restored
[3] = target: T1, HIV-1 reverse transcriptase (p66/p51); experiment: EMSA; complex formed; competed by 100-fold excess of itself; 6 mM MgCl2, 60 mM NaCl, 40 mM Tris-HCl pH 8.3, 10 mM DTT, 37 C; details: Genetics Institute (Cambridge, MA) for polymerase assays; label: 32P (CTP, internal); tRNA cloverleaf

| Binder | binding result [1] | binding result [2] | binding result [3] |
| --- | --- | --- | --- |
| tRNAtarD (ssRNA) RNA: UAGACCAUAGCUCAGUCGGUAGAGCAUCAGACUUUUAAUCUGAGGGUCCAGGGUUCAAGUCCCUGUGGUCUAACCA | no binding | binds | – |
| tRNALys3 (ssRNA) RNA: GCCCGGAUAGCUCAGUCGGUAGAGCAUCAGACUUUUAAUCUGAGGGUCCAGGGUUCAAGUCCCUGUUCGGGCGCCA | – | – | binds |

Source: patent US6355790, “Inhibition of HIV replication using a mutated transfer RNA primer” (University of Rochester)
